Measured values from the supplement of paper PMC5998384.

Legend:
HeLa Kyoto [1] = experiment: solubility in G1/S (NP-40 vs SDS abundance) (log2 ratio); higher = more soluble; conditions: cell cycle stage: G1/S
HeLa Kyoto [2] = experiment: melting temperature (median over replicates), in situ; higher = more thermally stable
HeLa Kyoto [3] = experiment: solubility change mitosis vs G1/S (difference of NP-40 vs SDS log2 ratios) (log2 ratio difference); higher = more soluble in mitosis
HeLa Kyoto [4] = experiment: thermal stability score vs G1/S (z-score of summed log2 fold changes over temperatures); higher = more thermally stable than in G1/S
[5] = cell cycle stage: early G1 (4.5 h after nocodazole release)
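Wherever melting temperature (median over replicates), in situ is given: HeLa Kyoto cells synchronized by double thymidine or nocodazole block, proteins quantified by TMT10plex mass spectrometry, three independent biological replicates.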
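Wherever solubility change mitosis vs G1/S (difference of NP-40 vs SDS log2 ratios) is given: synchronized HeLa Kyoto cells (double thymidine block for G1/S, nocodazole release for mitosis), protein amounts in NP-40 versus SDS lysates quantified by mass spectrometry, three biological replicates.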
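Wherever solubility in G1/S (NP-40 vs SDS abundance) is given: HeLa Kyoto cells arrested at G1/S by double thymidine block, proteins quantified by TMT10plex mass spectrometry in mild NP-40 versus SDS extracts, three biological replicates.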
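Wherever thermal stability score vs G1/S (z-score of summed log2 fold changes over temperatures) is given: synchronized HeLa Kyoto cells, proteins quantified by TMT10plex mass spectrometry, three biological replicates, mitosis taken 0.5 h after nocodazole release, G1/S directly after double thymidine block.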

Sequence of CHMP5 (chain, as listed by the source): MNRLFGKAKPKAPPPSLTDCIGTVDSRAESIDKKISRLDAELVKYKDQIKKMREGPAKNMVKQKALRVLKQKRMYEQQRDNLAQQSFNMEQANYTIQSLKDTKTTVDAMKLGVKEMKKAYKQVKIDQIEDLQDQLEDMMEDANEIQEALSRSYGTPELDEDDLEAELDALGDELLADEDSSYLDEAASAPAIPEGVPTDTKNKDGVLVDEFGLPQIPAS

With “MPSDLAKKKAAKKKEAAKARQRPRKGHEENGDVVTEPQVAEKNEANGRETTEVDLLTKELEDFEMKKAAARAVTGVLASHPNSTDVHIINLSLTFHGQELLSDTKLELNSGRRYGLIGLNGIGKSMLLSAIGKREVPIPEHIDIYHLTREMPPSDKTPLHCVMEVDTERAMLEKEAERLAHEDAECEKLMELYERLEELDADKAEMRASRILHGLGFTPAMQRKKLKDFSGGWRMRVALARALFIRPFMLLLDEPTNHLDLDACVWLEEELKTFKRILVLVSHSQDFLNGVCTNIIHMHNKKLKYYTGNYDQYVKTRLELEENQMKRFHWEQDQIAHMKNYIARFGHGSAKLARQAQSKEKTLQKMMASGLTERVVSDKTLSFYFPPCGKIPPPVIMVQNVSFKYTKDGPCIYNNLEFGIDLDTRVALVGPNGAGKSTLLKLLTGELLPTDGMIRKHSHVKIGRYHQHLQEQLDLDLSPLEYMMKCYPEIKEKEEMRKIIGRYGLTGKQQVSPIRNLSDGQKCRVCLAWLAWQNPHMLFLDEPTNHLDIETIDALADAINEFEGGMMLVSHDFRLIQQVAQEIWVCEKQTITKWPGDILAYKEHLKSKLVDEEPQLTKRTHNV [ABCF2]” the “solubility in G1/S (log2)” value (HeLa Kyoto [1]) was -0.296, the melting temperature (HeLa Kyoto [2]; cell cycle stage: G1/S) was 51.8 °C and the melting temperature (HeLa Kyoto [2]; cell cycle stage: mitosis) was 51.2 °C. The “solubility change mitosis (log2)” value (HeLa Kyoto [3]) was 0.116, the thermal stability score (HeLa Kyoto [4]; [5]) was 1.11 and the thermal stability score (HeLa Kyoto [4]; cell cycle stage: mitosis) was 0.19.
For “MFGRSRSWVGGGHGKTSRNIHSLDHLKYLYHVLTKNTTVTEQNRNLLVETIRSITEILIWGDQNDSSVFDFFLEKNMFVFFLNILRQKSGRYVCVQLLQTLNILFENISHETSLYYLLSNNYVNSIIVHKFDFSDEEIMAYYISFLKTLSLKLNNHTVHFFYNEHTNDFALYTEAIKFFNHPESMVRIAVRTITLNVYKVSLDNQAMLHYIRDKTAVPYFSNLVWFIGSHVIELDDCVQTDEEHRNRGKLSDLVAEHLDHLHYLNDILIINCEFLNDVLTDHLLNRLFLPLYVYSLENQDKGGERPKISLPVSLYLLSQVFLIIHHAPLVNSLAEVILNGDLSEMYAKTEQDIQRSSAKPSIRCFIKPTETLERSLEMNKHKGKRRVQKRPNYKNVGEEEDEEKGPTEDAQEDAEKAKGTEGGSKGIKTSGESEEIEMVIMERSKLSELAASTSVQEQNTTDEEKSAAATCSESTQWSRPFLDMVYHALDSPDDDYHALFVLCLLYAMSHNKGMDPEKLERIQLPVPNAAEKTTYNHPLAERLIRIMNNAAQPDGKIRLATLELSCLLLKQQVLMSAGCIMKDVHLACLEGAREESVHLVRHFYKGEDIFLDMFEDEYRSMTMKPMNVEYLMMDASILLPPTGTPLTGIDFVKRLPCGDVEKTRRAIRVFFMLRSLSLQLRGEPETQLPLTREEDLIKTDDVLDLNNSDLIACTVITKDGGMVQRFLAVDIYQMSLVEPDVSRLGWGVVKFAGLLQDMQVTGVEDDSRALNITIHKPASSPHSKPFPILQATFIFSDHIRCIIAKQRLAKGRIQARRMKMQRIAALLDLPIQPTTEVLGFGLGSSTSTQHLPFRFYDQGRRGSSDPTVQRSVFASVDKVPGFAVAQCINQHSSPSLSSQSPPSASGSPSGSGSTSHCDSGGTSSSSTPSTAQSPADAPMSPELPKPHLPDQLVIVNETEADSKPSKNVARSAAVETASLSPSLVPARQPTISLLCEDTADTLSVESLTLVPPVDPHSLRSLTGMPPLSTPAAACTEPVGEEAACAEPVGTAED [CLEC16A]”, the “solubility in G1/S (log2)” value (HeLa Kyoto [1]) was -0.224, the melting temperature (HeLa Kyoto [2]; cell cycle stage: G1/S) was 55.7 °C and the melting temperature (HeLa Kyoto [2]; cell cycle stage: mitosis) was 57.4 °C. For the same substance, the “solubility change mitosis (log2)” value (HeLa Kyoto [3]) was -0.241, the thermal stability score (HeLa Kyoto [4]; [5]) was -1.42 and the thermal stability score (HeLa Kyoto [4]; cell cycle stage: mitosis) was -1.87.
With “MESVSCSAAAVRTGDMESQRDLSLVPERLQRREQERQLEVERRKQKRQNQEVEKENSHFFVATFVRERAAVEELLERAESVERLEEAASRLQGLQKLINDSVFFLAAYDLRQGQEALARLQAALAERRRGLQPKKRFAFKTRGKDAASSTKVDAAPGIPPAVESIQDSPLPKKAEGDLGPSWVCGFSNLESQVLEKRASELHQRDVLLTELSNCTVRLYGNPNTLRLTKAHSCKLLCGPVSTSVFLEDCSDCVLAVACQQLRIHSTKDTRIFLQVTSRAIVEDCSGIQFAPYTWSYPEIDKDFESSGLDRSKNNWNDVDDFNWLARDMASPNWSILPEEERNIQWD [TBCC]” the “solubility in G1/S (log2)” value (HeLa Kyoto [1]) was 0.242, the melting temperature (HeLa Kyoto [2]; cell cycle stage: G1/S) was 51.8 °C and the melting temperature (HeLa Kyoto [2]; cell cycle stage: mitosis) was 52.4 °C. The “solubility change mitosis (log2)” value (HeLa Kyoto [3]) was -0.152, the thermal stability score (HeLa Kyoto [4]; [5]) was 0.786 and the thermal stability score (HeLa Kyoto [4]; cell cycle stage: mitosis) was 0.503.
For “MSALEWYAHKSLGDGIFWIQERFYESGNRANIWLVRGSEQDVVIDTGLGLRSLPEYLYSSGLLQDREAKEDAARRPLLAVATHVHFDHSGGLYQFDRVAVHHAEAEALARGDNFETVTWLSDSEVVRTPSPGWRARQFRVQAVQPTLILQDGDVINLGDRQLTVMHMPGHSRGSICLHDKDRKILFSGDVVYDGSLIDWLPYSRISDYVGTCERLIELVDRGLVEKVLPGHFNTFGAERLFRLASNYISKAGICHKVSTFAMRSLASLALRVTNSRTSP [MBLAC2]”, the “solubility in G1/S (log2)” value (HeLa Kyoto [1]) was -0.203, the melting temperature (HeLa Kyoto [2]; cell cycle stage: G1/S) was 55.4 °C and the melting temperature (HeLa Kyoto [2]; cell cycle stage: mitosis) was 54.6 °C. The “solubility change mitosis (log2)” value (HeLa Kyoto [3]) was 0.0124, the thermal stability score (HeLa Kyoto [4]; [5]) was -1.94 and the thermal stability score (HeLa Kyoto [4]; cell cycle stage: mitosis) was -1.79.
In the case of “MGRAGAAAVIPGLALLWAVGLGSAAPSPPRLRLSFQELQAWHGLQTFSLERTCCYQALLVDEERGRLFVGAENHVASLNLDNISKRAKKLAWPAPVEWREECNWAGKDIGTECMNFVKLLHAYNRTHLLACGTGAFHPTCAFVEVGHRAEEPVLRLDPGRIEDGKGKSPYDPRHRAASVLVGEELYSGVAADLMGRDFTIFRSLGQRPSLRTEPHDSRWLNEPKFVKVFWIPESENPDDDKIYFFFRETAVEAAPALGRLSVSRVGQICRNDVGGQRSLVNKWTTFLKARLVCSVPGVEGDTHFDQLQDVFLLSSRDHRTPLLYAVFSTSSSIFQGSAVCVYSMNDVRRAFLGPFAHKEGPMHQWVSYQGRVPYPRPGMCPSKTFGTFSSTKDFPDDVIQFARNHPLMYNSVLPTGGRPLFLQVGANYTFTQIAADRVAAADGHYDVLFIGTDVGTVLKVISVPKGSRPSAEGLLLEELHVFEDSAAVTSMQISSKRHQLYVASRSAVAQIALHRCAAHGRVCTECCLARDPYCAWDGVACTRFQPSAKRRFRRQDVRNGDPSTLCSGDSSRPALLEHKVFGVEGSSAFLECEPRSLQARVEWTFQRAGVTAHTQVLAEERTERTARGLLLRRLRRRDSGVYLCAAVEQGFTQPLRRLSLHVLSATQAERLARAEEAAPAAPPGPKLWYRDFLQLVEPGGGGSANSLRMCRPQPALQSLPLESRRKGRNRRTHAPEPRAERGPRSATHW [SEMA3B]”, the “solubility in G1/S (log2)” value (HeLa Kyoto [1]) is reported as -0.625, the melting temperature (HeLa Kyoto [2]; cell cycle stage: G1/S) is reported as 55.1 °C and the melting temperature (HeLa Kyoto [2]; cell cycle stage: mitosis) is reported as 57.9 °C. For the same substance, the “solubility change mitosis (log2)” value (HeLa Kyoto [3]) was -0.384, the thermal stability score (HeLa Kyoto [4]; [5]) was 4.5 and the thermal stability score (HeLa Kyoto [4]; cell cycle stage: mitosis) was 7.7.
For “MADKVRRQRPRRRVCWALVAVLLADLLALSDTLAVMSVDLGSESMKVAIVKPGVPMEIVLNKESRRKTPVIVTLKENERFFGDSAASMAIKNPKATLRYFQHLLGKQADNPHVALYQARFPEHELTFDPQRQTVHFQISSQLQFSPEEVLGMVLNYSRSLAEDFAEQPIKDAVITVPVFFNQAERRAVLQAARMAGLKVLQLINDNTATALSYGVFRRKDINTTAQNIMFYDMGSGSTVCTIVTYQMVKTKEAGMQPQLQIRGVGFDRTLGGLEMELRLRERLAGLFNEQRKGQRAKDVRENPRAMAKLLREANRLKTVLSANADHMAQIEGLMDDVDFKAKVTRVEFEELCADLFERVPGPVQQALQSAEMSLDEIEQVILVGGATRVPRVQEVLLKAVGKEELGKNINADEAAAMGAVYQAAALSKAFKVKPFVVRDAVVYPILVEFTREVEEEPGIHSLKHNKRVLFSRMGPYPQRKVITFNRYSHDFNFHINYGDLGFLGPEDLRVFGSQNLTTVKLKGVGDSFKKYPDYESKGIKAHFNLDESGVLSLDRVESVFETLVEDSAEEESTLTKLGNTISSLFGGGTTPDAKENGTDTVQEEEESPAEGSKDEPGEQVELKEEAEAPVEDGSQPPPPEPKGDATPEGEKATEKENGDKSEAQKPSEKAEAGPEGVAPAPEGEKKQKPARKRRMVEEIGVELVVLDLPDLPEDKLAQSVQKLQDLTLRDLEKQEREKAANSLEAFIFETQDKLYQPEYQEVSTEEQREEISGKLSAASTWLEDEGVGATTVMLKEKLAELRKLCQGLFFRVEERKKWPERLSALDNLLNHSSMFLKGARLIPEMDQIFTEVEMTTLEKVINETWAWKNATLAEQAKLPATEKPVLLSKDIEAKMMALDREVQYLLNKAKFTKPRPRPKDKNGTRAEPPLNASASDQGEKVIPPAGQTEDAEPISEPEKVETGSEPGDTEPLELGGPGAEPEQKEQSTGQKRPLKNDEL [HYOU1]”, the “solubility in G1/S (log2)” value (HeLa Kyoto [1]) was 0.402, the melting temperature (HeLa Kyoto [2]; cell cycle stage: G1/S) was 54.1 °C and the melting temperature (HeLa Kyoto [2]; cell cycle stage: mitosis) was 54.4 °C. For the same substance, the “solubility change mitosis (log2)” value (HeLa Kyoto [3]) was -0.0667, the thermal stability score (HeLa Kyoto [4]; [5]) was 3.86 and the thermal stability score (HeLa Kyoto [4]; cell cycle stage: mitosis) was 5.24.
For CHMP5, the “solubility in G1/S (log2)” value (HeLa Kyoto [1]) was 0.437, the melting temperature (HeLa Kyoto [2]; cell cycle stage: G1/S) was 55.2 °C and the melting temperature (HeLa Kyoto [2]; cell cycle stage: mitosis) was 52.2 °C. For the same substance, the “solubility change mitosis (log2)” value (HeLa Kyoto [3]) was 0.751, the thermal stability score (HeLa Kyoto [4]; [5]) was -3.8 and the thermal stability score (HeLa Kyoto [4]; cell cycle stage: mitosis) was -3.3.
